B1: LAIVPVNTL (peptide)
peptide: LAIVPVNTL
B2: FILPSSLYL (peptide)
peptide: FILPSSLYL
B3: FIMEGGAMVL (peptide)
peptide: FIMEGGAMVL

Target: T1, HLA-A*02:01 (human)
T1 construct: MHC monomer first loaded with a UV-sensitive peptide that is cleaved by UV light and exchanged for the test peptide; captured on streptavidin plates and detected with anti-b2m; also called peptide-receptive MHC molecules; MHC class I
Assay: UV peptide-exchange ELISA, exchange yield grade
Text: Candidate peptides for T cell based therapies according to the present invention were further tested for their MHC binding capacity (affinity). The individual peptide-MHC complexes were produced by UV-ligand exchange, where a UV-sensitive peptide is cleaved upon UV-irradiation, and exchanged with the peptide of interest as analyzed. Only peptide candidates that can effectively bind and stabilize the peptide-receptive MHC molecules prevent dissociation of the MHC complexes. To determine the yield of the exchange reaction, an ELISA was performed based on the detection of the light chain (B2m) of stabilized MHC complexes. The assay was performed as generally described in Rodenko et al. (Rodenko et al., 2006).
96 well MAXISorp plates (NUNC) were coated over night with 2 μg/ml streptavidin in PBS at room temperature, washed 4× and blocked for 1 h at 37° C. in 2% BSA containing blocking buffer. Refolded HLA-A*02:01/MLA-001 monomers served as standards, covering the range of 15-500 ng/ml. Peptide-MHC monomers of the UV-exchange reaction were diluted 100 fold in blocking buffer. Samples were incubated for 1h at 37° C., washed four times, incubated with 2 μg/ml HRP conjugated anti-β2m for 1h at 37° C., washed again and detected with TMB solution that is stopped with […]. Absorption was measured at 450 nm. Candidate peptides that show a high exchange yield (preferably higher than 50%, most preferred higher than 75%) are generally preferred for a generation and production of antibodies or fragments thereof, and/or T cell receptors or fragments thereof, as they show sufficient avidity to the MHC molecules and prevent dissociation of the MHC complexes.

| Binder | peptide exchange yield [%] |
| --- | --- |
| B1 | 50 to 75 |
| B2 | ≥ 75 |
| B3 | 50 to 75 |

Reference: patent US20240285738A1 (IMMATICS BIOTECHNOLOGIES, published 2024)
